Measurements published in US20180172684A1.

Assays:
[1] = biological target: P30 protein of Mycoplasma pneumoniae as present in Mycoplasma pneumoniae analytes (deactivated Mycoplasma pneumoniae Antigen (FH), Meridian; pharyngeal swabs of infected subjects) (Mycoplasma pneumoniae) (UniProt P75330); test: immunochromatography sandwich (Com. Ex. 7), label P30(b), detection P30(b); pharyngeal swab Subject 2
[2] = biological target: P30 protein of Mycoplasma pneumoniae as present in Mycoplasma pneumoniae analytes (deactivated Mycoplasma pneumoniae Antigen (FH), Meridian; pharyngeal swabs of infected subjects) (Mycoplasma pneumoniae) (UniProt P75330); test: immunochromatography sandwich (Com. Ex. 6), label P30(a), detection P30(b); pharyngeal swab Subject 1; Triton X-100/Tween 20 diluent
[3] = biological target: mycoplasma pneumonia P30 (purified protein P30Ag produced by expressing amino acids 96-274 with Escherichia coli) (Mycoplasma pneumoniae) (UniProt P75330); test: ELISA, P30Ag coated at 4 ng/mL, antibody 5 ug/mL, anti-mouse IgG-peroxidase
[4] = biological target: P30 protein of Mycoplasma pneumoniae as present in Mycoplasma pneumoniae analytes (deactivated Mycoplasma pneumoniae Antigen (FH), Meridian; pharyngeal swabs of infected subjects) (Mycoplasma pneumoniae) (UniProt P75330); test: immunochromatography sandwich (Com. Ex. 7), label P30(b), detection P30(b); deactivated Mycoplasma pneumoniae (FH)
[5] = biological target: P30 protein of Mycoplasma pneumoniae as present in Mycoplasma pneumoniae analytes (deactivated Mycoplasma pneumoniae Antigen (FH), Meridian; pharyngeal swabs of infected subjects) (Mycoplasma pneumoniae) (UniProt P75330); test: immunochromatography sandwich (Com. Ex. 6), label P30(a), detection P30(b); deactivated Mycoplasma pneumoniae (FH); Triton X-100/Tween 20 diluent
[6] = biological target: P30 protein of Mycoplasma pneumoniae as present in Mycoplasma pneumoniae analytes (deactivated Mycoplasma pneumoniae Antigen (FH), Meridian; pharyngeal swabs of infected subjects) (Mycoplasma pneumoniae) (UniProt P75330); test: immunochromatography sandwich (Com. Ex. 1), label P30(a), detection P30(b); pharyngeal swab Subject 2
[7] = biological target: mycoplasma pneumonia P30 (purified protein P30Ag produced by expressing amino acids 96-274 with Escherichia coli) (Mycoplasma pneumoniae) (UniProt P75330); test: immunochromatography sandwich, P30(b)-gold label and P30(b) detection line, P30Ag 10 pg/mL, no peptide
[8] = biological target: full-length protein mycoplasma pneumonia P30 (amino acids 1-274; SEQ ID NO: 1) (Mycoplasma pneumoniae) (UniProt P75330); test: ELISA, full-length P30 coated, 5 ug/mL P30(b), no peptide (0 point of the peptide 1 series)
[9] = biological target: P30 protein of Mycoplasma pneumoniae as present in Mycoplasma pneumoniae analytes (deactivated Mycoplasma pneumoniae Antigen (FH), Meridian; pharyngeal swabs of infected subjects) (Mycoplasma pneumoniae) (UniProt P75330); test: immunochromatography sandwich (Com. Ex. 2), label P30(b), detection P30(b); pharyngeal swab Subject 1
[10] = biological target: P30 protein of Mycoplasma pneumoniae as present in Mycoplasma pneumoniae analytes (deactivated Mycoplasma pneumoniae Antigen (FH), Meridian; pharyngeal swabs of infected subjects) (Mycoplasma pneumoniae) (UniProt P75330); test: immunochromatography sandwich (Com. Ex. 1), label P30(a), detection P30(b); pharyngeal swab Subject 1
[11] = biological target: mycoplasma pneumonia P30 (purified protein P30Ag produced by expressing amino acids 96-274 with Escherichia coli) (Mycoplasma pneumoniae) (UniProt P75330); test: immunochromatography sandwich (Com. Ex. 9), label P30(b), detection P30(b); analyte P30Ag
[12] = biological target: P30 protein of Mycoplasma pneumoniae as present in Mycoplasma pneumoniae analytes (deactivated Mycoplasma pneumoniae Antigen (FH), Meridian; pharyngeal swabs of infected subjects) (Mycoplasma pneumoniae) (UniProt P75330); test: immunochromatography sandwich (Com. Ex. 2), label P30(b), detection P30(b); pharyngeal swab Subject 2
[13] = biological target: P30 protein of Mycoplasma pneumoniae as present in Mycoplasma pneumoniae analytes (deactivated Mycoplasma pneumoniae Antigen (FH), Meridian; pharyngeal swabs of infected subjects) (Mycoplasma pneumoniae) (UniProt P75330); test: immunochromatography sandwich (Com. Ex. 2), label P30(b), detection P30(b); deactivated Mycoplasma pneumoniae (FH)
[14] = biological target: mycoplasma pneumonia P30 (purified protein P30Ag produced by expressing amino acids 96-274 with Escherichia coli) (Mycoplasma pneumoniae) (UniProt P75330); test: immunochromatography sandwich (Com. Ex. 8), label P30(a), detection P30(b); analyte P30Ag
[15] = biological target: P30 protein of Mycoplasma pneumoniae as present in Mycoplasma pneumoniae analytes (deactivated Mycoplasma pneumoniae Antigen (FH), Meridian; pharyngeal swabs of infected subjects) (Mycoplasma pneumoniae) (UniProt P75330); test: immunochromatography sandwich (Com. Ex. 1), label P30(a), detection P30(b); deactivated Mycoplasma pneumoniae (FH)
[16] = biological target: P30 protein of Mycoplasma pneumoniae as present in Mycoplasma pneumoniae analytes (deactivated Mycoplasma pneumoniae Antigen (FH), Meridian; pharyngeal swabs of infected subjects) (Mycoplasma pneumoniae) (UniProt P75330); test: immunochromatography sandwich (Com. Ex. 6), label P30(a), detection P30(b); pharyngeal swab Subject 2; Triton X-100/Tween 20 diluent
[17] = biological target: P30 protein of Mycoplasma pneumoniae as present in Mycoplasma pneumoniae analytes (deactivated Mycoplasma pneumoniae Antigen (FH), Meridian; pharyngeal swabs of infected subjects) (Mycoplasma pneumoniae) (UniProt P75330); test: immunochromatography sandwich (Com. Ex. 7), label P30(b), detection P30(b); pharyngeal swab Subject 1
[18] = biological target: full-length protein mycoplasma pneumonia P30 (amino acids 1-274; SEQ ID NO: 1) (Mycoplasma pneumoniae) (UniProt P75330); test: ELISA, full-length P30 coated, 5 ug/mL P30(b), no peptide (0 point of the peptide 2 series)
[19] = biological target: antibody P30(b) (Fucal Research product Mp-P30-9-AB); test: competitive inhibition ELISA, full-length P30 coated, 5 ug/mL P30(b) + peptide 1 at x80 the antibody concentration
[20] = biological target: antibody P30(a) (Fucal Research product Mp-P30-3-AB); test: competitive inhibition ELISA, full-length P30 coated, 5 ug/mL P30(a) + peptide 1 at x10 the antibody concentration
[21] = biological target: antibody P30(b) (Fucal Research product Mp-P30-9-AB); test: competitive inhibition ELISA, full-length P30 coated, 5 ug/mL P30(b) + peptide 1 at x320 the antibody concentration
[22] = biological target: antibody P30(a) (Fucal Research product Mp-P30-3-AB); test: competitive inhibition ELISA, full-length P30 coated, 5 ug/mL P30(a) + peptide 1 at x320 the antibody concentration
[23] = biological target: antibody P30(a) (Fucal Research product Mp-P30-3-AB); test: competitive inhibition ELISA, full-length P30 coated, 5 ug/mL P30(a) + peptide 1 at x640 the antibody concentration
[24] = biological target: antibody P30(b) (Fucal Research product Mp-P30-9-AB); test: competitive inhibition ELISA, full-length P30 coated, 5 ug/mL P30(b) + peptide 1 at x640 the antibody concentration
[25] = biological target: antibody P30(b) (Fucal Research product Mp-P30-9-AB); test: competitive inhibition ELISA, full-length P30 coated, 5 ug/mL P30(b) + peptide 1 at x40 the antibody concentration
[26] = biological target: antibody P30(a) (Fucal Research product Mp-P30-3-AB); test: competitive inhibition ELISA, full-length P30 coated, 5 ug/mL P30(a) + peptide 1 at x80 the antibody concentration
[27] = biological target: antibody P30(b) (Fucal Research product Mp-P30-9-AB); test: competitive inhibition ELISA, full-length P30 coated, 5 ug/mL P30(b) + peptide 1 at x20 the antibody concentration
[28] = biological target: antibody P30(a) (Fucal Research product Mp-P30-3-AB); test: competitive inhibition ELISA, full-length P30 coated, 5 ug/mL P30(a) + peptide 1 at x160 the antibody concentration
[29] = biological target: antibody P30(b) (Fucal Research product Mp-P30-9-AB); test: competitive inhibition ELISA, full-length P30 coated, 5 ug/mL P30(b) + peptide 1 at x1 the antibody concentration
[30] = biological target: antibody P30(a) (Fucal Research product Mp-P30-3-AB); test: competitive inhibition ELISA, full-length P30 coated, 5 ug/mL P30(a) + peptide 1 at x1 the antibody concentration
[31] = biological target: antibody P30(a) (Fucal Research product Mp-P30-3-AB); test: competitive inhibition ELISA, full-length P30 coated, 5 ug/mL P30(a) + peptide 1 at x20 the antibody concentration
[32] = biological target: antibody P30(a) (Fucal Research product Mp-P30-3-AB); test: competitive inhibition ELISA, full-length P30 coated, 5 ug/mL P30(a) + peptide 1 at x40 the antibody concentration
[33] = biological target: antibody P30(a) (Fucal Research product Mp-P30-3-AB); test: immunochromatography competition, 400 ng peptide 1 developed with P30Ag 10 pg/mL, P30(a) label and detection
[34] = biological target: antibody P30(a) (Fucal Research product Mp-P30-3-AB); test: competitive inhibition ELISA, full-length P30 coated at 4 ng/mL, 5 ug/mL P30(a) + peptide 1 at 40 times the antibody amount
[35] = biological target: antibody P30(b) (Fucal Research product Mp-P30-9-AB); test: competitive inhibition ELISA, full-length P30 coated, 5 ug/mL P30(b) + peptide 1 at x10 the antibody concentration
[36] = biological target: antibody P30(b) (Fucal Research product Mp-P30-9-AB); test: competitive inhibition ELISA, full-length P30 coated, 5 ug/mL P30(b) + peptide 1 at x160 the antibody concentration
[37] = biological target: antibody P30(b) (Fucal Research product Mp-P30-9-AB); test: immunochromatography competition, 400 ng peptide 1 developed with P30Ag 10 pg/mL, P30(b) label and detection

Molecule: antibody P30(b) (Fucal Research product Mp-P30-9-AB)
- Color intensity (mAbs) [1]: 8.9 mAbs
- Color intensity (mAbs) [2]: 29.8 mAbs
- absorbance at 450 nm after subtracting the blank [3]: 0.061 Abs
- Color intensity (mAbs) [4]: 40.5 mAbs
- Color intensity (mAbs) [5]: 159 mAbs
- Color intensity (mAbs) [6]: 7.9 mAbs
- Color intensity after 15 min [7]: 58.2 mAbs
- Color intensity (Abs) [8]: 0.208 Abs
- Color intensity (mAbs) [9]: 8.9 mAbs
- Color intensity (mAbs) [10]: 16.3 mAbs
- Color intensity (mAbs) [11]: 24.3 mAbs
- Color intensity (mAbs) [12]: 6.1 mAbs
- Color intensity (mAbs) [13]: 18.9 mAbs
- Color intensity (mAbs) [14]: 31.8 mAbs
- Color intensity (mAbs) [15]: 79.4 mAbs
- Color intensity (mAbs) [16]: 13.6 mAbs
- Color intensity (mAbs) [17]: 15.2 mAbs
- Color intensity (Abs) [18]: 0.208 Abs

Molecule: PGMAPRPGMPPHPGMAPR [Peptide 1 (SEQ ID NO: 6: …)]
- Color intensity (Abs) [19]: 0.237 Abs
- Color intensity (Abs) [20]: 0.341 Abs
- Percentage reduction of color intensity (%) [20]: 17%
- Color intensity (Abs) [21]: 0.23 Abs
- Color intensity (Abs) [22]: 0.132 Abs
- Percentage reduction of color intensity (%) [22]: 68%
- Color intensity (Abs) [23]: 0.12 Abs
- Percentage reduction of color intensity (%) [23]: 71%
- Color intensity (Abs) [24]: 0.225 Abs
- Color intensity (Abs) [25]: 0.232 Abs
- Color intensity (Abs) [26]: 0.17 Abs
- Percentage reduction of color intensity (%) [26]: 59%
- Color intensity (Abs) [27]: 0.228 Abs
- Color intensity (Abs) [28]: 0.134 Abs
- Percentage reduction of color intensity (%) [28]: 67%
- Color intensity (Abs) [29]: 0.226 Abs
- Color intensity (Abs) [30]: 0.37 Abs
- Percentage reduction of color intensity (%) [30]: 10%
- Color intensity (Abs) [31]: 0.322 Abs
- Percentage reduction of color intensity (%) [31]: 22%
- Color intensity (Abs) [32]: 0.24 Abs
- Percentage reduction of color intensity (%) [32]: 42%
- Color intensity after 15 min [33]: 100 mAbs
- percentage reduction of absorbance [34]: > 30%
- Color intensity (Abs) [35]: 0.256 Abs
- Color intensity (Abs) [36]: 0.223 Abs
- Color intensity after 15 min [37]: 60.9 mAbs
